These results are taken from paper PMC5617235.

Assay [1] has as its target T. congolense fructose-1,6-bisphosphate aldolase, wild type (Trypanosoma congolense). Kind of assay: SEC; analytical SEC of TcoALD alone; Superdex 200 HR 10/30, 50 mM MES, 500 mM NaCl, pH 6.7; calibrated with the Bio-Rad standard.
Assay [2] has the same target. Kind of assay: crystal structure; (Nb474-TcoALD)4 complex, His tags of both retained; 100 mM sodium cacodylate pH 6.5, 200 mM magnesium acetate, 10% PEG 8000, 20°C; 2.57 Å.
The target is the same in assay [3]. Kind of assay: SEC; analytical SEC of 1 mg TcoALD mixed with Nb474 at Nb474:TcoALD ratios 1:4, 2:4, 3:4, 4:4, 6:4, incubated at least 1 h; Superdex 200 HR 10/30, 50 mM MES, 500 mM NaCl, pH 6.7; peaks analysed by SDS-PAGE.
The target of assay [4] is T. congolense fructose-1,6-bisphosphate aldolase A77E mutant (Trypanosoma congolense). Description: SPR; SPR sandwich assay: immobilised Nb474 on CM5 saturated with a TcoALD variant, then Nb474 (0.5 nM to 1.0 uM) injected as second analyte; 20 mM HEPES, 150 mM NaCl, 0.005% Tween, 3.4 mM EDTA, pH 7.4; 1:1 Langmuir model for WT and A77E. (In general: In SPR one partner is held on a chip, and binding of the other changes the refractive index at the surface.)

On to “T. congolense fructose-1,6-bisphosphate aldolase, wild type (enzyme)”, for which the figures for the stoichiometry N in assay [1], in assay [2] and in assay [3] were 2, 4 and 4, respectively.

B1: Nanobody Nb474, C-terminally His-tagged (VHH)
VHH: QVQLQESGGGLVQPGGSLRLSCAASETALTYYAIGWFRQAPGKEREGVSCISRINSGSGARTDYADSVKGRFTISRDDAKNTVTLQMNSLEPEDTARYYCALDTTDRYDSANGRYYCTISSDTYDYWGQGTQVTVSS
Turning to B1, the stoichiometry N (Nb474 per TcoALD monomer) in assay [3] is 1. In assay [4], the equilibrium dissociation constant (Kd) (in general, a measure of binding affinity in units of concentration) amounted to 0.067 nM; the koff (commonly a measure of how fast the partners let go of each other) came to 0.000141 s⁻¹; the on-rate (kon) (in general, the second-order rate constant of association) was determined as 2.11e+06 M⁻¹ s⁻¹.
